T1: rhMer/Fc Chimera (recombinant human MERTK extracellular domain conjugated to an IgG Fc domain) (human, UniProt Q12866 21-505)
T1 construct: extracellular domain; also called hMER recombinant protein; Mer-Fc conjugate; not shown: IgG Fc domain
T1 sequence (looked up): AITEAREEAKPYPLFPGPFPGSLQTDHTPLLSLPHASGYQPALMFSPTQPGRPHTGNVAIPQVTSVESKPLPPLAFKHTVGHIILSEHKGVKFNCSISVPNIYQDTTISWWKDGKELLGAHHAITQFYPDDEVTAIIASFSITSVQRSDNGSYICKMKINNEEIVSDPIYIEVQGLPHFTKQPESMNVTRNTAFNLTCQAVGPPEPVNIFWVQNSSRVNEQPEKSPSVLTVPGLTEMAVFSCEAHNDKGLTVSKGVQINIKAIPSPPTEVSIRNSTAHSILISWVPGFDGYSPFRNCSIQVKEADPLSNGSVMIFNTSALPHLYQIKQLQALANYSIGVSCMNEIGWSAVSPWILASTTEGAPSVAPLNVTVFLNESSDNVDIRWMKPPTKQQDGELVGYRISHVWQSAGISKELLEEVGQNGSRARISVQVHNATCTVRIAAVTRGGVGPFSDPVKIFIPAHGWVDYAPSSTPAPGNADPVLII

T2: human MERTK expressed on cells (SKMEL5 melanoma cells; in vitro differentiated M2 macrophages) (human, UniProt Q12866 21-999)
T2 construct: Endogenous MERTK of human cells; also called surface MERTK
T2 sequence: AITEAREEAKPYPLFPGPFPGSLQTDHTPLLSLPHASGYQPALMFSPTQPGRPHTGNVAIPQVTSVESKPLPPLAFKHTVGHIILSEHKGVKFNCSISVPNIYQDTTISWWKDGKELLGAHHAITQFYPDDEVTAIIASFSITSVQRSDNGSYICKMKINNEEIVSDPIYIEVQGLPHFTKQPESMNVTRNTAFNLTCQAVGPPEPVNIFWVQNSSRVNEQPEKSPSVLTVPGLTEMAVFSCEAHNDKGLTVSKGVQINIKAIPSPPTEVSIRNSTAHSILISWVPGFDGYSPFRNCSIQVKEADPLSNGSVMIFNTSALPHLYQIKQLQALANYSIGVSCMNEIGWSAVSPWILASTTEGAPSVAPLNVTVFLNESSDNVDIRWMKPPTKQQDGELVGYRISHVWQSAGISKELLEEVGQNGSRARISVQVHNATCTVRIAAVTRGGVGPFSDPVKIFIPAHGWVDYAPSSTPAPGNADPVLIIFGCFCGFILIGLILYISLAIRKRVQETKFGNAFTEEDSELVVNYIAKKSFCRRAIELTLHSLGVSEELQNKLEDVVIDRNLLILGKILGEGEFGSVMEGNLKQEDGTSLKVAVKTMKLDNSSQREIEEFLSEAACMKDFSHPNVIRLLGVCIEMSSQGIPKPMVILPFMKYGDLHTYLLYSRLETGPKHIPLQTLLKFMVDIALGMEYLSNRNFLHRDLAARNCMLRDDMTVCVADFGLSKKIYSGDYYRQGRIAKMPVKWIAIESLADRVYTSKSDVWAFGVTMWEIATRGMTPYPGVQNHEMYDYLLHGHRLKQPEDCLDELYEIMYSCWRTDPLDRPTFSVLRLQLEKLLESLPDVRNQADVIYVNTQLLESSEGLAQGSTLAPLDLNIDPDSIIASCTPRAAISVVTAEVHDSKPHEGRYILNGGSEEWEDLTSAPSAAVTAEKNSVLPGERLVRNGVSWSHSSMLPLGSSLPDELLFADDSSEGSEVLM


Experiments:
[1] = target: T1, rhMer/Fc Chimera (recombinant human …); assay: SPR, off-rate; ligand rhMer/Fc Chimera, antibody as analyte; below the detection limit of the instrument
[2] = target: T2, human MERTK expressed on cells (SKMEL5 …); assay: cell-based assay similar to that for z10 (flow cytometry on cells)
[3] = target: T1, rhMer/Fc Chimera (recombinant human …); assay: SPR, avidity format: rhMer/Fc Chimera immobilised on CM5 chip, antibody as analyte, 1:1 fit
Protocol: With respect to avidity and affinity measurements using SPR, the protocols below were used.
The activator was prepared with a mixture of 400 mM EDC and 100 mM NHS immediately prior to injection. The CM5 sensor chip was activated for 420 s with the mixture. […] The chip was deactivated by 1 M ethanolamine-HCl. […] 8 concentrations (0.3125, 0.625, 1.25, 2.5, 5, 10, 20 and 40 nM) of the antibodies and running buffer were injected at a flow rate of 30 μL/min for an association phase of 240 s, followed by 4800 s dissociation. 10 mM glycine pH 1.5 as regeneration buffer was injected following every dissociation phase. The chip was regenerated with 10 mM glycine pH 1.5. One surface channel without capturing ligand was used as control surface for reference subtraction. Final data of each interaction was deducted from reference channel and buffer channel data. […] A molecular weight of 150 kDa was used to calculate the molar concentration of the antibodies.

[4] = target: T1, rhMer/Fc Chimera (recombinant human …); assay: SPR, off-rate; ligand rhMer/Fc Chimera, antibody as analyte

Row | Binder | koff [1] | EC50 [2] | Kd [3] | koff [4]
1 | z11 antibody (antibody, human IgG1, kappa, V domains shown) VH: QVQLVQSGAEVKKPGASVKVSCKASGYTFTNYGMNWVRQAPGQGLEWMGWINTYTGEPTYADDFKGRVTMTLDTSTSTAYMELRSLRSDDMAVYYCARKSTVVSRYFDVWGQGTTVTVSS VL: DIQMTQSPSFLSASVGDRVTITCKASQDVGDAVTWYQQKPGKAPKLLIYWASTRHTGVPDRFSGSGSGTDFTLTISSLQPEDFATYYCQQYRSYPLTFGQGTKLEIKR | < 1e-06 s⁻¹ | 7.9 nM | 0.00299 nM | –
2 | z13 antibody (antibody, human IgG1, kappa, V domains shown) VH: QVQLVQSGAEVKKPGASVKVSCKASGYTFTNYGMNWVRQAPGQGLEWMGWINTYTGEPTYADDFKGRVTFTLDTSTSTAYMELRSLRSDDMAVYYCARKSTVVSRYFDVWGQGTTVTVSS VL: DIQMTQSPSFLSASVGDRVTITCKASQDVGDAVTWYQQKPGKAPKLLIYWASTRHTGVPDRFSGSGSGTDFTLTISSLQPEDFATYYCQQYRSYPLTFGQGTKLEIKR | < 1e-06 s⁻¹ | 7.6 nM | 0.00368 nM | –
3 | W3725-xAb-IgG1K/(S34+S35) (antibody, V domains shown, also called chimeric anti-MERTK antibody) VH: QIQLVQSGPELKKPGETVKISCKASGYTFTNYGMNWVKQAPGKGLKWMGWINTYTGEPTYADDFKGRFVFSLETSASTAYLQINNLKNEDMATYFCARKSTVVSRYFDVWGAGTTVTVSS VL: DIVLTQSHKFMSTSVGDRVSITCKASQDVGDAVTWCQQKPGQPPKLLIYWASTRHTGVPDRFTGSGSGTDFTLTINNVQSEDLADYFCQQYRSYPLTFGAGTKLELKR | – | – | – | 7e-06 s⁻¹

— patent US20200291135A1 (INSPIRNA, published 2020)
